Laboratory results as given in US20250215091A1, “Anti-GAL3 Antibodies and Compositions” (Les Laboratoires Servier, priority 2022, published 2025).

How the values were obtained:
rat model of ARDS = test: Rat ARDS model (LPS challenge): total BALF protein (BCA assay); assay type: in vivo; conditions: antibodies 14 mg/kg x3 prior to LPS; dexamethasone 10 mg/kg oral; vs LPS group; FIG. 17
Outline: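 Rats dosed with antibody at 14 mg/kg (in sterile PBS) or PBS on days −11, −6 and −1, then LPS 0.25 mg/kg s.c. on day 1; dexamethasone 10 mg/kg oral 2 h before LPS as reference. Total protein in BALF quantified by BCA assay, compared with the LPS + PBS group.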

[1] = tested on: murine model of HOCI-induced fibrosis; test: HOCI-induced murine fibrosis model: skin and lung collagen (Picrosirius red); assay type: in vivo, mice; conditions: first experiment
Experimental: In a first experiment, control mice (n=12) received a daily intradermal injection of 300 μL of sterile phosphate buffer saline (PBS) for 5 consecutive days per week, for a duration of 42 days. HOCI alone and HOCI with antibody (HOCI-antibody) treated mice (n=12 per group) received a daily intradermal injection of 300 μL of HOCI for 5 consecutive days per week, for a duration of 42 days. Antibody-treated mice also received a subcutaneous injection of 20 mg/kg antibody, starting at day minus one and every 5 days between day 5 and day 40. Each antibody was solubilized in sterile, endotoxin-free PBS before injection. In a second experiment, the same protocol was applied, except that duration of the study was 63 days and antibodies were given every 7 days starting at day minus 1 until day 62.
Mice that received daily injection of HOCI were also treated by intratracheal instillation of 0.5 mg/kg of TD139 compound (HOCI-TD139), a small molecule Gal3 inhibitor. In a first experiment, the administrations started from day 21 and the compound was given every 3 days until day 39. In a second experiment, the administrations started from day 20 and the compound was given every 3 days until day 62. TD139 was initially dissolved in 100% DMSO then diluted 50-fold in endotoxin-free PBS before administration.
At the day of study termination of the first experiment (day 42), skin and lung samples were taken, formalin-fixed and processed to individual paraffin wax blocks. Sections of skin and lung were cut from the blocks and, after rehydration, stained with Picrosirius Red coloration according to the manufacturer's protocol. Subsequently, each slide was examined and remotely analyzed employing the web-based Image J software

[2] = tested on: murine model of bleomycin-induced fibrosis; test: Bleomycin-induced murine lung fibrosis model: body weight and body weight metrics; assay type: in vivo, mice
Experimental: Control bleomycin mice named ‘Bleo’ received an administration of 1.65 mg/kg bleomycin by the oropharyngeal route on Day 1. […] Antibody-treated mice also received an administration of 1.65 mg/kg bleomycin by the oropharyngeal route on Day 1 and a subcutaneous injection of 20 mg/kg antibody, starting on day minus one and on days 4, 8, 12, 16 and 20. Each antibody was solubilized in sterile, endotoxin-free PBS before injection. Mice that received bleomycin were also treated by oropharyngeal administration of 0.5 mg/kg of TD139 compound (Bleo-TD139), a small molecule Gal3 inhibitor, starting on day 12 and every 2 days until day 20. TD139 was initially dissolved in 100% DMSO.
Mice were weighed daily. Their growth curves are represented on FIG. 12. Control mice had normal growth with a mean percent increase of 6.4% of their initial body weight measured on day minus 1.
Body weight metrics were assessed by using two parameters called Time to weight growth (TWG) and Time to baseline (TTB), shown on FIG. 13. Time to weight growth corresponds to the point of inflection when mice show an ascending growth curve and start to regain weight within the course of the experiment. Time to baseline corresponds to the number of days required for mice to recover their initial body weight (day minus 1). The median TWG was 10 days for the untreated bleomycin group. […] TD139 compound had no efficacy on this parameter (p-value 0.53).

[3] = bleomycin 1.65 mg/kg, antibody 20 mg/kg s.c.

B1: E07: anti-Gal3 monoclonal antibody, IgG1 format; VH SEQ ID NO 42, VL SEQ ID NO 43 (antibody, V domains shown)
VH: EVQLVESGGSLVKPGGSLRLSCAASGFTFSNYNMNWVRQAPGKGLEWISNIYGSSRYIYYADFVKGRFTISRDNAKNSLYLQMNSLRAEDTAVYYCVRSYYGGMDVWGRGTLVTVSS
VL: QSVLTQPASVSGSPGQSITISCAGTSSDVGGYYSVSWYQQHPGKAPKLMIYYDSNRPSGVSNRFSGSKSGNTASLTISGLQAEDEADYYCSSYTGYSTRVFGGGTKLEIK
total BALF protein (rat model of ARDS): also decreased with a statistic significance
lung collagen levels ([1]; day 42, FIG. 8A): restored lung collagen levels to those of control mice, reaching statistical significance
skin collagen levels ([1]; day 42, vs HOCI group, FIG. 8B): non significant downward trend
body weight status on day 21 [2, 3]: full weight recovery
day from which body weight reached values close to those of control mice [2, 3]: 18 days
recovery of body weight ([2]; bleomycin 1.65 mg/kg, antibody 20 mg/kg s.c., FIG. 12): more rapid recovery of body weight
reduction of median Time to weight growth (TWG) ([2]; median TWG 10 days for untreated bleomycin group, FIG. 13): 2 days
